Experimental data published in patent US20090192048A1, “METHOD OF PRODUCING A […] AGENT FOR BINDING A LIGAND” (priority 2005, published 2009).
Ends that are not written are not given here.

Legend:
Type in all cases: physicochemical
[1] = Retention of peptides on Greiner polypropylene V-bottom wells; conditions: 400V scan; for Untreated fluorescence: unwashed; for Retained fluorescence: washed 15 minutes in 1 M NaCl in 10 mM tris-HCl (pH 8.0)
Procedure: (§1) The retention of peptides 2DOS-1 to 2DOS-16 (see above) on polypropylene and polystyrene surfaces was compared:
(§2) 5 mM tris-HCl (pH 8.0) in 75% (v/v) aqueous acetonitrile was used as the solvent for the peptides and for TAMRA.
(§3) 20 μl aliquots of 5 μM peptides 2DOS-1 to 2DOS-16 and 5 μM TAMRA were pipetted into the wells of a Costar V-bottomed polypropylene microtitre plate, a Greiner V-bottomed polypropylene microtitre plate, and a Greiner V-bottomed polystyrene microtitre plate according to the scheme shown in FIG. 26:
(§4) The peptide samples were allowed to evaporate to dryness in the dark.
(§5) The peptide samples in the top two rows of the microtitre plates were then incubated for 15 minutes at room temperature in 250 μl of 1 M NaCl in 10 mM tris-HCl (pH 8.0).
(§6) After incubation, the wash buffer was pipetted up and down eight times in the well before removing the supernatant.
(§7) The washed and untreated peptide samples were then resuspended in 50 μl of 10 mM tris-HCl (pH 8.0) in 50% (v/v) aqueous acetonitrile.
(§8) The microtitre plates were imaged at 200 μm resolution on a Typhoon Trio Plus variable mode imager (Amersham Biosciences) with the green (532 nm) laser and the 580 BP 30 filter at the PMT voltages indicated below and at normal sensitivity. The scan height was set at +3 mm and the sample was pressed during scanning.
(§9) The fluorescence images were analysed using ImageQuant TL v2003.03 (Amersham Biosciences).

[2] = Retention of peptides on Greiner polystyrene V-bottom wells; conditions: 400V scan; for Untreated fluorescence: unwashed; for Retained fluorescence: washed 15 minutes in 1 M NaCl in 10 mM tris-HCl (pH 8.0)
Procedure: as §1, §2, §3, §4, §5, §6, §7, §8, §9

[3] = Retention of peptides in V-bottomed polypropylene wells; conditions: V-bottom wells, 500V scan; for Untreated fluorescence: unwashed; for Retained fluorescence: washed 15 minutes in 1 M NaCl in 10 mM tris-HCl (pH 8.0)
Procedure: (§10) The retention of peptides 2DOS-1 to 2DOS-16 (see above) on polypropylene wells of different geometries was investigated:
(§11) 10 mM tris-HCl (pH 8.0) in 50% (v/v) aqueous acetonitrile was used as the solvent for the peptides and for TAMRA.
(§12) 1 μl aliquots of 10 μM peptides 2DOS-1 to 2DOS-16 and 10 μM TAMRA were pipetted into the wells of a Costar V-bottomed polypropylene microtitre plate and a Greiner flat-bottomed polypropylene microtitre plate according to the following scheme as shown in FIG. 22:
as §4
(§13) The peptide samples in the top two rows of the microtitre plates were then incubated for 15′ minutes at room temperature in 250 μl of 1 M NaCl in 10 mM tris-HCl (pH 8.0).
as §6, §7
as §8, with “the platen” for “+3 mm”, “during,” for “during”
as §9

[4] = Retention of peptides on Costar polypropylene V-bottom wells; conditions: 400V scan; for Untreated fluorescence: unwashed; for Retained fluorescence: washed 15 minutes in 1 M NaCl in 10 mM tris-HCl (pH 8.0)
Procedure: as §1, §2, §3, §4, §5, §6, §7, §8, §9

[5] = Retention of peptides in flat-bottomed polypropylene wells; conditions: flat-bottom wells, 500V scan; for Untreated fluorescence: unwashed; for Retained fluorescence: washed 15 minutes in 1 M NaCl in 10 mM tris-HCl (pH 8.0)
Procedure: as §10, §11, §12, §4, §13, §6, §7
as §8, with “the platen” for “+3 mm”, “during,” for “during”
as §9

[6] = Retention of peptides 2DOS-1 to 2DOS-16 on a hydrophobic surface (polypropylene microtitre plate wells), water wash; conditions: 400V scan; for Initial fluorescence (×10^3): 100 μl of 10 μM peptide before drying and washing; for Recovered fluorescence (×10^3): dried, washed ten times with 250 μl water, resuspended
Procedure: The retention of peptides 2DOS-1 to 2DOS-16 on a hydrophobic surface (the wells of a polypropylene microtitre plate) was then investigated.
as §11
100 μl aliquots of 10 μM peptides 2DOS-1 to 2DOS-16 and 10 μM TAMRA were placed in the wells of a Costar microtitre plate as shown in FIG. 13:
as §8, with “plate was” for “plates were”
The peptides were allowed to evaporate to dryness overnight in the dark and the microtitre plate was again scanned as described above.
The wells were then washed ten times with 250 μl of water.
The residual surface-bound peptides were finally resuspended in 100 μl of 10 mM tris-HCl (pH 8.0) in 50% (v/v) aqueous acetonitrile and the microtitre plate was again scanned as described above.
as §9
Quantification data (using the data from the 400V scan) is given in Table 2 and shown graphically in FIG. 15.

Substance | Percent retention [1] [%] | Untreated fluorescence [1] | Retained fluorescence [1] | Percent retention [2] [%] | Untreated fluorescence [2] | Retained fluorescence [2] | Percent retention [3] [%] | Untreated fluorescence [3] | Retained fluorescence [3] | Percent retention [4] [%] | Untreated fluorescence [4] | Retained fluorescence [4] | Percent retention [5] [%] | Untreated fluorescence [5] | Retained fluorescence [5] | Initial fluorescence (×10^3) [6] | Recovered fluorescence (×10^3) [6]
N-TAMPA-Asp-Asp- Asp-Ala-Asp-Ser- Asp-Lys-Asp-C ({TAMRA}-DDDADSDKD) [Peptide 2DOS-4] | 1 | 3,937,734 | 50,669 | 1 | 783,885 | 6,714 | 2 | 8,265,596 | 159,080 | 1 | 5,661,181 | 74,143 | 2 | 11,885,905 | 198,507 | 32,313 ×10^3 | 0 ×10^3
N-TAMPA-Asp-Asp- Asp-Asp-Asp-Asp- Asp-Asp-Asp-C ({TAMRA}-DDDDDDDDD) [Peptide 2DOS-12] | 1 | 3,235,590 | 20,175 | 1 | 684,832 | 3,788 | 1 | 6,777,661 | 52,365 | 0 | 4,432,090 | 18,180 | 1 | 12,982,170 | 106,741 | 26,433 ×10^3 | 1 ×10^3
N-TAMPA-Asp-Asp- Asp-Asp-Asp-Asp- Asp-C ({TAMRA}-DDDDDDD) [Peptide 2DOS-16] | 1 | 3,813,060 | 25,885 | 0 | 789,858 | 3,864 | 0 | 9,782,527 | 44,420 | 0 | 5,387,850 | 16,194 | 1 | 15,555,465 | 229,090 | 30,335 ×10^3 | 3 ×10^3
N-TAMPA-Norleu- Asp-Norleu-Asp- Norleu-Asp-Norleu- Asp-Norleu-C [Peptide 2DOS-9] | 12 | 3,621,913 | 439,252 | 10 | 626,304 | 62,023 | 14 | 11,662,691 | 1,608,482 | 17 | 7,102,251 | 1,184,648 | 16 | 13,456,698 | 2,148,849 | 34,587 ×10^3 | 2,382 ×10^3
N-TAMRA-Asp- Norleu- Asp-Norleu-Asp- Norleu-Asp-C [Peptide 2DOS-13] | 10 | 3,635,229 | 378,287 | 9 | 708,162 | 62,590 | 11 | 7,623,227 | 806,022 | 8 | 4,886,617 | 387,738 | 17 | 12,935,739 | 2,162,164 | 26,181 ×10^3 | 25 ×10^3
N-TAMRA-Asp-Phe- Ala-Phe-Ser-Phe- Lys-C ({TAMRA}-DFAFSFK) [Peptide 2DOS-6] | 22 | 3,889,995 | 849,582 | 25 | 666,352 | 167,118 | 39 | 9,141,290 | 3,527,116 | 22 | 5,733,046 | 1,256,204 | 36 | 14,539,109 | 5,256,539 | 33,853 ×10^3 | 1,455 ×10^3
N-TAMRA-Asp-Phe- Asp-Phe-Asp-Phe- Asp-C ({TAMRA}-DFDFDFD) [Peptide 2DOS-14] | 13 | 3,612,113 | 461,468 | 9 | 860,811 | 75,304 | 13 | 7,641,246 | 1,018,179 | 11 | 5,331,894 | 595,959 | 4 | 15,090,582 | 670,341 | 28,071 ×10^3 | 283 ×10^3
N-TAMRA-Asp-Ser- Ala-Ser-Ser-Ser- Lys-C ({TAMRA}-DSASSSK) [Peptide 2DOS-7] | 5 | 3,751,280 | 205,430 | 2 | 706,200 | 15,766 | 9 | 8,674,544 | 746,596 | 6 | 5,139,578 | 326,328 | 13 | 10,189,473 | 1,303,195 | 29,134 ×10^3 | 0 ×10^3
N-TAMRA-Asp-Ser- Asp-Ser-Asp-Ser- Asp-C ({TAMRA}-DSDSDSD) [Peptide 2DOS-15] | 1 | 4,771,265 | 65,142 | 1 | 868,334 | 5,116 | 1 | 10,493,100 | 122,851 | 1 | 6,488,130 | 50,584 | 1 | 15,290,885 | 104,523 | 30,845 ×10^3 | 2 ×10^3
